Laboratory results as given in patent US20260242478A1 (published 2026).
Where no end group is shown, it is not given here.

B1: Phage-3790 (peptide)
peptide: VSQLCIPEWMCIGI
notes: Clone of the Peptide-180 optimisation library, tested as clonal phage supernatant
B2: Phage-3806 (Peptide-180 library clone, SEQ ID NO: 4122) (peptide)
peptide: DQAACVPAWMCTGF
notes: Tested as clonal phage supernatant; not shown: pIII coat protein of the bacteriophage to which the peptide is fused
B3: Phage-3788 (peptide)
peptide: MLRSCVPPWMCAGF
modifications: cysteine pairing not given here; also: displayed on phage as fusion to pIII, junction not given here
notes: as for B1
B4: Phage-3804 (Peptide-180 library clone, SEQ ID NO: 4120) (peptide)
peptide: IRALCEPSWMCTGF
notes: as for B2
B5: Phage-3796 (peptide)
peptide: MERSCIPDWMCLGF
notes: as for B1
B6: Phage-3810 (Peptide-180 library clone, SEQ ID NO: 4126) (peptide)
peptide: GDQMCIPLWMCEGF
notes: as for B2
B7: Phage-3800 (Peptide-180 library clone, SEQ ID NO: 4116) (peptide)
peptide: LELLCRPSWMCEGF
modifications: cysteine pairing not given here; also: displayed on phage as fusion to pIII, junction not given here
notes: as for B2
B8: Phage-3812 (Peptide-180 library clone, SEQ ID NO: 4128) (peptide)
peptide: AYPMCSPAWMCAGF
modifications: cysteine pairing not given here; also: displayed on phage as fusion to pIII, junction not given here
notes: as for B2
B9: Phage-3808 (Peptide-180 library clone, SEQ ID NO: 4124) (peptide)
peptide: LGVQCKPTWMCQGF
notes: as for B2
B10: Phage-3781 (peptide)
peptide: LVARCVPEWMCAGF
modifications: cysteine pairing not given here; also: displayed on phage as fusion to pIII, junction not given here
B11: Phage-3787 (peptide)
peptide: LKVECRPLWMCEGF
notes: as for B1
B12: Phage-3792 (peptide)
peptide: HMQYCIPQWMCHGF
notes: as for B1
B13: Phage-3797 (peptide)
peptide: VEYLCKPVWMCQGF
notes: as for B1
B14: Phage-3786 (peptide)
peptide: EMIRCEPRWMCSGF
modifications: cysteine pairing not given here; also: displayed on phage as fusion to pIII, junction not given here
notes: as for B1
B15: Phage-3801 (Peptide-180 library clone, SEQ ID NO: 4117) (peptide)
peptide: EWLVCKPAWMCLGL
notes: as for B2
B16: Phage-3798 (peptide)
peptide: MSMYCVPTWMCNGF
notes: as for B1
B17: Phage-3807 (Peptide-180 library clone, SEQ ID NO: 4123) (peptide)
peptide: VVSHCKPIWMCSGF
notes: as for B2
B18: Phage-3795 (peptide)
peptide: DLIYCRPAWMCDGF
notes: as for B1
B19: Phage-3803 (Peptide-180 library clone, SEQ ID NO: 4119) (peptide)
peptide: GGPMCKPVWMCQGF
notes: as for B2
B20: Phage-3811 (Peptide-180 library clone, SEQ ID NO: 4127) (peptide)
peptide: SFQRCEPEWMCYGF
notes: as for B2
B21: Phage-3789 (peptide)
peptide: EQVLCRPEWMCIGF
notes: as for B1
B22: Phage-3799 (peptide)
peptide: LELACRPMWMCQGF
notes: as for B1
B23: Phage-3791 (peptide)
peptide: VHMACTPWWMCVGF
notes: as for B1
B24: Phage-3780 (peptide)
peptide: HMPLCIPVWMCAGF
modifications: not fully specified (residue 3); cysteine pairing not given here; also: displayed on phage as fusion to pIII, junction not given here
B25: Phage-3794 (peptide)
peptide: TVKQCVPEWMCVML
notes: as for B1
B26: Phage-3802 (Peptide-180 library clone, SEQ ID NO: 4118) (peptide)
peptide: EVLRCVPRWMCEKF
notes: as for B2
B27: Phage-3809 (Peptide-180 library clone, SEQ ID NO: 4125) (peptide)
peptide: DARLCKPTWMCMGL
notes: as for B2
B28: Phage-3805 (Peptide-180 library clone, SEQ ID NO: 4121) (peptide)
peptide: HMIHCVPDWMCEGF
notes: as for B2
B29: Phage-3793 (peptide)
peptide: FAFDCVPKWMCTGF
notes: as for B1

Experiments:
[1] = molecular target: T1, PSMA Fab (006 PSMA Fab); assay: phage ELISA; biotinylated PSMA Fab on neutravidin plate, clonal phage supernatant, anti-M13 HRP detection;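 further: wells preincubated with PSMA antigen in blocking buffer or with blocking buffer only before clonal phage were added for a short incubation, then bound phage detected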
T1 construct: also called Anti-PSMA Fab; anti-PSMA Fab
Procedure: (§1) Clonal phage were harvested as crude supernatants and screened via standard ELISAs. […] Prior to the addition of clonal phage. wells were incubated with blocking buffer and PSMA antigen or blocking buffer alone. Without washing or aspirating, clonal phage supernatants were then added to the wells and incubated for a short time. Wells were then washed followed by detection of bound phage using a horse radish conjugated anti-M13 antibody.

[2] = molecular target: T1, PSMA Fab (006 PSMA Fab); assay: phage ELISA; biotinylated PSMA Fab on neutravidin plate pre-incubated with PSMA antigen as competitor, anti-M13 HRP detection;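 further: crude clonal phage supernatants tested, compared against control wells pre-incubated with blocking buffer only, without PSMA antigen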
Procedure: as §1

[3] = molecular target: T2, Anti-PSMA Fab; assay: clonal phage ELISA on biotinylated PSMA Fab captured on neutravidin plates, anti-M13-HRP detection;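 further: crude clonal phage supernatants added to wells preincubated with PSMA antigen or with blocking buffer only (no wash between), briefly incubated, then washed before detecting bound phage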
T2 construct: also called 006 PSMA Fab
Procedure: as §1

[4] = molecular target: T2, Anti-PSMA Fab; assay: clonal phage ELISA on captured PSMA Fab, wells pre-incubated with PSMA antigen as competitor, anti-M13-HRP detection;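 further: crude clonal phage supernatants added without washing after the PSMA preincubation, comparison wells received blocking buffer alone without PSMA, bound phage read after washing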
Procedure: as §1

[5] = molecular target: T3, PSMA Fab (SEQ ID NOs: 19, 20); assay: clonal phage ELISA; biotinylated PSMA Fab captured on neutravidin plate, bound phage detected with anti-M13-HRP
T3 construct: also called Anti-PSMA Fab; 006 PSMA Fab
Procedure: as §1

[6] = molecular target: T3, PSMA Fab (SEQ ID NOs: 19, 20); assay: clonal phage ELISA; captured biotinylated PSMA Fab pre-incubated with PSMA antigen as competitor, anti-M13-HRP detection
Procedure: as §1

| Binder | Phage binding ELISA signal, Anti-PSMA Fab [1] | Phage binding ELISA signal, Anti-PSMA Fab in presence of PSMA [2] | Phage binding ELISA signal, Anti-PSMA Fab [3] | Phage binding ELISA signal, Anti-PSMA Fab with PSMA antigen [4] | Phage binding ELISA signal, Anti-PSMA Fab [5] | Phage binding ELISA signal, Anti-PSMA Fab with PSMA antigen [6] |
| --- | --- | --- | --- | --- | --- | --- |
| SVVKCVPSWMCTGF [Phage-3785] | 1.32 | 0.0729 | – | – | – | – |
| B1 | – | – | 1.32 | 0.08 | – | – |
| B2 | – | – | – | – | 1.3 | 0.117 |
| B3 | – | – | 1.32 | 0.0821 | – | – |
| B4 | – | – | – | – | 1.3 | 0.0766 |
| B5 | – | – | 1.31 | 0.0541 | – | – |
| B6 | – | – | – | – | 1.29 | 0.106 |
| PGASCVPAWMCDGF [Phage-3784] | 1.33 | 0.0653 | – | – | – | – |
| B7 | – | – | – | – | 1.3 | 0.0665 |
| VQLMCMPEWMCSGL [Phage-3775] | 1.33 | 0.0599 | – | – | – | – |
| VHRMCEPKWMCEGF [Phage-3773] | 1.33 | 0.0695 | – | – | – | – |
| B8 | – | – | – | – | 1.29 | 0.0779 |
| ISPICRPAWMCHGF [Phage-3777] | 1.33 | 0.0873 | – | – | – | – |
| B9 | – | – | – | – | 1.29 | 0.0911 |
| B10 | 1.33 | 0.102 | – | – | – | – |
| B11 | – | – | 1.32 | 0.075 | – | – |
| B12 | – | – | 1.32 | 0.0825 | – | – |
| B13 | – | – | 1.31 | 0.0609 | – | – |
| EYQRCIPEWMCSGF [Phage-3779] | 1.33 | 0.0735 | – | – | – | – |
| B14 | – | – | 1.32 | 0.0656 | – | – |
| B15 | – | – | – | – | 1.3 | 0.0609 |

| Binder | Phage binding ELISA signal, Anti-PSMA Fab [1] | Phage binding ELISA signal, Anti-PSMA Fab in presence of PSMA [2] | Phage binding ELISA signal, Anti-PSMA Fab [3] | Phage binding ELISA signal, Anti-PSMA Fab with PSMA antigen [4] | Phage binding ELISA signal, Anti-PSMA Fab [5] | Phage binding ELISA signal, Anti-PSMA Fab with PSMA antigen [6] |
| --- | --- | --- | --- | --- | --- | --- |
| PVQLCIPSWMCDGF [Phage-3776] | 1.33 | 0.0876 | – | – | – | – |
| B16 | – | – | 1.31 | 0.0602 | – | – |
| B17 | – | – | – | – | 1.29 | 0.083 |
| B18 | – | – | 1.31 | 0.0679 | – | – |
| GLRMCEPMWMCQGF (cysteine pairing not given here; also: displayed on phage as pIII fusion) [Phage-3772] | 1.34 | 0.0749 | – | – | – | – |
| B19 | – | – | – | – | 1.3 | 0.0735 |
| B20 | – | – | – | – | 1.29 | 0.0768 |
| B21 | – | – | 1.32 | 0.0856 | – | – |
| B22 | – | – | 1.31 | 0.0709 | – | – |
| VEVRCVPAWMCEGL [Phage-3783] | 1.33 | 0.0698 | – | – | – | – |
| B23 | – | – | 1.32 | 0.0962 | – | – |
| VTTLCRPAWMCHGF [Phage-3778] | 1.33 | 0.0881 | – | – | – | – |
| YSNFCVPHWMCSGF [Phage-3782] | 1.33 | 0.0679 | – | – | – | – |
| B24 | 1.33 | 0.113 | – | – | – | – |
| B25 | – | – | 1.31 | 0.104 | – | – |
| B26 | – | – | – | – | 1.3 | 0.0658 |
| B27 | – | – | – | – | 1.29 | 0.0886 |
| B28 | – | – | – | – | 1.3 | 0.0847 |
| WEGFCVPTWMCDGF [Phage-3774] | 1.33 | 0.0864 | – | – | – | – |
| B29 | – | – | 1.31 | 0.0829 | – | – |
